This note sets out measurements from patent US20200317744A1 (published 2020).

Numbering of substitutions follows the chain as printed.

Experiment [1] deals with murine IL-2Rβ (mIL-2Rβ) (mouse) (UniProt P16297). Put plainly: SPR; mIL-2Rβ immobilised. For orientation: SPR reads the build-up and loss of mass on a sensor chip optically.
The target of experiment [2] is murine IL-2 receptor βγc heterodimer (mIL-2Rβγc) (mouse) (UniProt P16297). Kind of experiment: SPR; mIL-2Rγ immobilised, saturating mIL-2Rβ in solution.
Experiment [3] concerns the target human IL-2Rβγc on YT-1 human natural killer cells (human) (UniProt P14784). Kind of experiment: cell-based or functional assay.
Experiment [4] deals with human IL-2 receptor βγc heterodimer (hIL-2Rβγc) (human) (UniProt P14784). Kind of experiment: SPR; hIL-2Rγ immobilised, saturating hIL-2Rβ in solution.
For experiment [5], the target named is human IL-2Rβ (hIL-2Rβ) (human) (UniProt P14784). Put plainly: SPR; hIL-2Rβ immobilised.
Experiment [6] concerns the target murine IL-2 receptor βγc heterodimer (mIL-2Rβγc) (mouse) (UniProt P16297). Put plainly: biolayer interferometry; biotin-mIL2Gamma on streptavidin sensor, MSA-Neo2 titrated 729 to 1 nM with saturating mIL2Beta. Background: Biolayer interferometry detects binding as a change in optical thickness at a sensor tip.
The target of experiment [7] is T1, IL-4 receptor αγc heterodimer (IL-4Rαγc) (human, UniProt P24394 26-232; P31785 23-254, limits assumed, biotinylated at the C-terminal biotin acceptor peptide (BirA)).
T1 construct: also called γc when IL-4Rα is present in solution
T1 sequence 1: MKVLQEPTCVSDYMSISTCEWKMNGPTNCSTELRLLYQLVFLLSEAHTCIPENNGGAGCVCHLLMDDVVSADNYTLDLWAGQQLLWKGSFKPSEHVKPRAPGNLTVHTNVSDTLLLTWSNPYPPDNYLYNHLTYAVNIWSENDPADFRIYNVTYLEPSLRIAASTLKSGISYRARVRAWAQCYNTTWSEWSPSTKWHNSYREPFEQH
T1 sequence 2: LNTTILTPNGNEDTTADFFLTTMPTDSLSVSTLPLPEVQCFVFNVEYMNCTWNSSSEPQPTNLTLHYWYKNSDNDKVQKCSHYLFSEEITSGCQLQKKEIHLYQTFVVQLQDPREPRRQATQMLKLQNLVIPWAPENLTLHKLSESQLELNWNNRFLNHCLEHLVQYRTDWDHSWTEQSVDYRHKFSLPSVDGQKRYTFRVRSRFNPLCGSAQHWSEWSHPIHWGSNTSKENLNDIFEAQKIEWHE
Put plainly: biolayer interferometry; γc on sensor, IL-4Rα in solution. Here is the method: Less than 100 response units (RU) of each ligand was immobilized to minimize mass transfer effects. […] Surface regeneration for all interactions was conducted using 15 s exposure to 1 M MgCl2 in 10 mM sodium acetate pH 5.5. SPR experiments were carried out in HBS-P+ buffer (GE Healthcare) supplemented with 0.2% bovine serum albumin (BSA) at 25° C. and all binding studies were performed at a flow rate of […] to prevent analyte rebinding. Data was visualized and processed using the Biacore T100 evaluation software version 2.0 (GE Healthcare). Equilibrium titration curve fitting and equilibrium binding dissociation (KD) value determination was implemented using GraphPad Prism assuming all binding interactions to be first order. Biolayer interferometry: binding data were collected in a Octet RED96 (ForteBio, Menlo Park, Calif.) and processed using the instrument's integrated software using a 1:1 binding model. […] Analyte proteins were diluted from concentrated stocks into binding buffer.

The target in experiment [8] is T2, human IL-4Rα (human, UniProt P24394 26-232, limits assumed, biotinylated).
T2 construct: also called IL-4Rα receptor
T2 sequence (looked up): T1 sequence 1
Kind of experiment: biolayer interferometry.

Experiment [9] has as its target IL-2Rβγc (species not stated). Kind of experiment: biolayer interferometry.

Chain of IL-2Rβγc (species not stated) (P14784 whole entry, chain 1 of 2): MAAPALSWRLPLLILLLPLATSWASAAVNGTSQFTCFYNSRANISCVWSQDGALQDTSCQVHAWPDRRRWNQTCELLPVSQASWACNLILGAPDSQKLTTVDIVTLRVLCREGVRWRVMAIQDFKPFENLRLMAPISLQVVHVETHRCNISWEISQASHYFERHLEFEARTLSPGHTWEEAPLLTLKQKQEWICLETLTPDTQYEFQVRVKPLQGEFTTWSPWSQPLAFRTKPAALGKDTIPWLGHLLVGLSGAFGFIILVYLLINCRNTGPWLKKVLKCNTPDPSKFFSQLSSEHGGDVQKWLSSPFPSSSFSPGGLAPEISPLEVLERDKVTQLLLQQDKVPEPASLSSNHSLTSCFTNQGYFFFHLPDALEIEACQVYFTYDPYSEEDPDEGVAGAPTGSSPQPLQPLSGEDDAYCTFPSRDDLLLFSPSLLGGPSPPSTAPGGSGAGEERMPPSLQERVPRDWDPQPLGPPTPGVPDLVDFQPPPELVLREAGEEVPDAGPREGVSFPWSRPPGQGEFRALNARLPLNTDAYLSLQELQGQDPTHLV
Chain of IL-2Rβγc (species not stated) (P31785 whole entry, chain 2 of 2, further chain): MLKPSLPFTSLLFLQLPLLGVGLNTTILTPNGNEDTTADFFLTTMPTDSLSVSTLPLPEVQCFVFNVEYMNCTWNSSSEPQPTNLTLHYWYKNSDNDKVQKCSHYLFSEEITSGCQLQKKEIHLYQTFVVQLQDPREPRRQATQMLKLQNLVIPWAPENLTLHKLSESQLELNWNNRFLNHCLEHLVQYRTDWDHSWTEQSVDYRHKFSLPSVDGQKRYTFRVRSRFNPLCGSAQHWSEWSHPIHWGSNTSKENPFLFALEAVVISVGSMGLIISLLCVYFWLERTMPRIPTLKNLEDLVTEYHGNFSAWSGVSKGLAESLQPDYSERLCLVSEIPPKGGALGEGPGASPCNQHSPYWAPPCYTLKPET
Chain of human IL-2Rβ (hIL-2Rβ) (human) (P14784 other isoform, or with tags, fused parts or gaps): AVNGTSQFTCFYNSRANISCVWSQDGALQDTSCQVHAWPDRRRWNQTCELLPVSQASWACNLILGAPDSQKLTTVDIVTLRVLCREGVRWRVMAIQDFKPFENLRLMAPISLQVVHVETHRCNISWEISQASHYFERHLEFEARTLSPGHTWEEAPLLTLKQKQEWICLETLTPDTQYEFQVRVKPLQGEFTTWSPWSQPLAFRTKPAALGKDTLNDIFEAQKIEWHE
Chain of human IL-2Rβγc on YT-1 human natural killer cells (human) (P14784 27-551): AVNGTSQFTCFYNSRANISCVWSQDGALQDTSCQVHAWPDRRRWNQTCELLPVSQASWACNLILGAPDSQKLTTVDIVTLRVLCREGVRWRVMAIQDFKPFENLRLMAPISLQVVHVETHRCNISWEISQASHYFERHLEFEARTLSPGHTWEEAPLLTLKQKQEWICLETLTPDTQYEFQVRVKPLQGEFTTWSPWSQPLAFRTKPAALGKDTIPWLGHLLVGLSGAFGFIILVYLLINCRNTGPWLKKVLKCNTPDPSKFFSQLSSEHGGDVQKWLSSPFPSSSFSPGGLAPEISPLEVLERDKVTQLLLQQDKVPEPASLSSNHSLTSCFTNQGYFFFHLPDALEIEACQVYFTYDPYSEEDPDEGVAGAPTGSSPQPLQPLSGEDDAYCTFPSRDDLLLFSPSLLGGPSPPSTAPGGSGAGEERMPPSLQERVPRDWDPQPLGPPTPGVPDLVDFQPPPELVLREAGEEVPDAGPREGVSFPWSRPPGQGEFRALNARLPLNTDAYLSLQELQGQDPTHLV
Chain of human IL-2 receptor βγc heterodimer (hIL-2Rβγc) (human) (P14784 27-240, one chain of several): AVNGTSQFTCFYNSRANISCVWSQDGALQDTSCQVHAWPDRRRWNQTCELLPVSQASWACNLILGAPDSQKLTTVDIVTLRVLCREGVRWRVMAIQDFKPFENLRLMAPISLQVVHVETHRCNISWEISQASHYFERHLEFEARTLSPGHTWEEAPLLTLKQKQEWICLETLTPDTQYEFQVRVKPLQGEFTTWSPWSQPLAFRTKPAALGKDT

As a reminder, the Kd is the free concentration of one partner at which half of the binding sites on the other are occupied at equilibrium, for simple one-to-one binding. Read a low Kd as tighter binding. As for “Neoleukin-2/15 (i.e. G2_neo2_40_1F_seq36_S11) (designed binder)”, the values for the Kd in experiment [1] and in [2] were 16.1 nM and 38.4 nM, respectively.
The matching figures for “human IL-2 (hIL-2) (from UniProt P60568 21-153) (ligand)”: 8110 nM and 492 nM.
Regarding Super-2/Superkine (PDB:3QAZ) (ligand), the EC50 (CD25-) pSTAT5, human NK (YT, CD25-) cells in experiment [3] came out at 0.07 nM. In addition, the Kd in experiment [1] was 214 nM; in experiment [4], 301 nM; in experiment [2], 312 nM; in experiment [5], 2 nM.

B1: Mouse Serum Albumin (MSA) fusion to Neoleukin-2/15 (protein)
chain: GSDGGSHHHHHHGSGSENLYFQGSGEAHKSEIAHRYNDLGEQHFKGLVLIAFSQYLQKCSYDEHAKLVQEVTDFAKTCVADESAANCDKSLHTLFGDKLCAIPNLRENYGELADCCTKQEPERNECFLQHKDDNPSLPPFERPEAEAMCTSFKENPTTFMGHYLHEVARRHPYFYAPELLYYAEQYNEILTQCCAEADKESCLTPKLDGVKEKALVSSVRQRMKCSSMQKFGERAFKAWAVARLSQTFPNADFAEITKLATDLTKVNKECCHGDLLECADDRAELAKYMCENQATISSKLQTCCDKPLLKKAHCLSEVEHDTMPADLPAIAADFVEDQEVCKNYAEAKDVFLGTFLYEYSRRHPDYSVSLLLRLAKKYEATLEKCCAEANPPACYGTVLAEFQPLVEEPKNLVKTNCDLYEKLGEYGFQNAILVRYTQKAPQVSTPTLVEAARNLGRVGTKCCTLPEDQRLPCVEDYLSAILNRVCLLHEKTPVSEHVTKCCSGSLVERRPCFSALTVDETYVPKEFKAETFTFHSDICTLPEKEKQIKKQTALAELVKHKPKATAEQLKTVMDDFAQFLDTCCKAADKDTCFSTEGPNLVTRCKDALAGGGSGGSGGGSGGSGSGPKKKIQLHAEHALYDALMILNIVKTNSPPAEEKLEDYAFNFELILEEIARLFESGDQKDEAEKAKRMKEWMKRIKTTASEDEQEEMANAIITILQSWIFS
In turn, B1 came in with a Kd in experiment [6] of 33.5 nM.

B2: G2_neo2_40_1F_seq29 (designed binder)
chain: EDYYSNLKVILEELAREMERNGLSDKAEEWRQWKKIVERIRQIRSNNSDLNEAKELLNRLITYIQSQIFEISERIRETDQEKKEESWKKWQLLLEHALLDVLMLLND
Regarding B2, in experiment [2], the Kd was found to be 38.2 nM.

B3: G2_neo2_40_1F_seq04 (designed binder)
chain: TTKKIQLLVEHALLDALMILNLSSESNEKLNRIITTLQSWIFRGEIDPDRARELAKLLEEIREEMRKRGIDTEDYVSNMIVIIRELA
Molecule B3 registered a Kd in experiment [2] of 80 nM.

B4: Neoleukin-4 (i.e. IL4_G2_neo2_40_1F_seq36_S11_MIF) (designed binder)
chain: PKKKIQIMAEEALKDALSILNIVKTNSPPAEEQLERFAKRFERNLWGIARLFESGDQKDEAEKAKRMIEWMKRIKTTASEDEQEEMANAIITILQSWFFS
notes: also called Neo-4
B4: the binding result in experiment [7] and in [8] was “binds” throughout.

B5: G2_neo2_40_1F_seq27 (designed binder)
chain: TKKKAQLLAEHALLDALMLLNLSSESNERLNRIITWLQSIIFTGTYDPDMVKEAVKLADEIEDEMRKRGIDTEDYVSNLRVILQELA
In turn, B5 registered a Kd in [2] of 13.6 nM.

B6: G2_neo2_40_1F_seq40 (designed binder)
chain: PEKKRQLLAEHALLDALMILNIIRTNSDNTESKLEDYISNLKVILEEIARLMESLGLSDEAEKAKEAMRLADKAGSTASEEEKKEAMNRVITWAQSWIFN
In [2], B6 had a dissociation constant Kd of 69.2 nM.

B7: G2_neo2_40_1F_seq26 (designed binder)
chain: TKKKYQLLIEHALLDALMILNLWSESNEKLNRIITTMQSWIFTGTYDPDKAEELEKLAKEIEDEARERGIDTEDYMSNLRVILKELS
For the molecule B7, in experiment [2], the Kd turned out to be 27.8 nM.

B8: G1_neo2_40_1F_M1 (designed binder)
chain: STEKTQLAAEHALRDALMLKHLLNEPNEKLARIITTMQSWQFTGKIDGDGAQELAKEVEELQQEHEVRGIDVEDYASNLKVILLHLA
As to B8, the Kd came to 214 nM in experiment [1] and 4.3 nM in experiment [2].

B9: G1_neo2_40_1F_M3 (designed binder)
chain: B8 chain with L7H, H11D, K20R, H21N, G44E, H85Q
Take B9: the figures for the Kd in [1] and in experiment [2] were 402 nM and 64.8 nM, respectively.

B10: G1_neo2_40_1F_M2 (designed binder)
chain: B8 chain with E3K, K4N, H11D, R14L, K20R, H21N, G44E, V67E, H85Q
Regarding B10, the results for the Kd in experiment [1] and in experiment [2] were 2600 nM and 886 nM, respectively.

B11: G1_neo2_40_1F (designed binder)
chain: STKKTQLLAEHALLDALMMLNLLPEPNEKLNRIITTMQSWIFTGKIDGDGAQELAKEVEELEQEHEKRGIDVEDYASNLKVILLELA
For the molecule B11, the values for the Kd in experiment [1] and in experiment [2] were 486 nM and 7.9 nM, respectively.

B12: G1_neo2_40_1F_H1 (designed binder)
chain: B11 chain with A9I, M18D, L20S, N21R, L22N, N31S, E53Q, I70E, Y75E
Take B12: the Kd in experiment [1] came to 6800 nM; in [2], 2650 nM.

B13: G1_neo2_40_1F_H4 (designed binder)
chain: B11 chain with A9L, M18H, L20S, N21R, L22E, T36D, E53D, I70G
B13: the Kd amounted to 10100 nM in experiment [1] and 392 nM in [2].

B14: G1_neo2_40_1F_H3 (designed binder)
chain: B11 chain with A9I, M18N, L20R, N21K, L22K, N31S, T36D, E53Q, I70G
As to B14, the Kd in experiment [2] stood at 3830 nM.

B15: G1_neo2_40_1F_H5 (designed binder)
chain: B11 chain with A9I, M18H, L20S, N21R, L22K, N31S, E53H, I70G, D71E, Y75E
As to B15, the Kd is 45300 nM in experiment [1] and 5120 nM in experiment [2].

B16: G1_neo2_40_1F_H2 (designed binder)
chain: B11 chain with A9L, M18H, L20R, N21R, L22N, N31S, I70R, Y75D
As for B16, the Kd was found to be 68300 nM in experiment [1] and 964 nM in [2].

B17: mouse IL-2 (mIL-2) (ligand, UniProt P04351 21-169, looked up)
chain: APTSSSTSSSTAEAQQQQQQQQQQQQHLEQLLMDLQELLSRMENYRNLKLPRMLTFKFYLPKQATELKDLQCLEDELGPLRHVLDLTQSKSFQLEDAENFISNIRVTVVKLKGSDNTFECQFDDESATVVDFLRRWIAFCQSIISTSPQ
Turning to B17, the Kd in experiment [1] worked out at 1500 nM; in experiment [2], 126 nM.

B18: G2_neo2_40_1F_seq36 (designed binder)
chain: PKKKIQLLAEHALLDALMILNIVKTNSQNAEEKLEDYASNVEVILEEIARLMESGDQKDEAEKAKRMKEWMKRIKTTASEDEQEEMANRIITLLQSWIFS
As for B18, the Kd was determined as 2430 nM in [1] and 568 nM in [2].

B19: G2_neo2_40_1F_seq30 (designed binder)
chain: PEKKRQLLLEHILLDALMLLNLLETNPQNTESKFEDYISNAEVIAEELAKLMESLGLSDEAEKFKKIKQWLREVWRIWSSTNWSTLEDKARELLNRIITTIQSQIFY
Regarding B19, the Kd in experiment [2] amounted to 925 nM.

B20: Neoleukin-2/15 terminal disulfide-stapled variant (CNSN and NFQC added at the termini) (designed binder)
chain: CNSNKKKIQLHAEHALYDALMILNIVKTNSPPAEEKLEDYAFNFELILEEIARLFESGDQKDEAEKAKRMKEWMKRIKTTASEDEQEEMANAIITILQSWIFNFQC
modifications: disulfide bond between the added N-terminal and C-terminal cysteines
In [9], B20 registered a Kd of 1.8 nM.

B21: G2_neo2_40_1F_seq12 (designed binder)
chain: TEKKLQLLVEHALLDALMILNLWSESNEKLNRIITTMQSWIFTGRIDPDKAEELAKLVEELREEARERGIDTEDYVSNLKVILKELS
In experiment [2], B21 showed a Kd of 39.1 nM.

B22: G2_neo2_40_1F_seq16 (designed binder)
chain: TKKKIQLLVEHALLDALMILNLSSKSNEKLNRIITTMQSWIFNGTIDPDRARELAKLVEEIRDEMEKNGIDTEDYVSNLKVILEELA
B22: the Kd in experiment [2] stood at 71.5 nM.

B23: Neoleukin-2/15 internal disulfide-stapled variant (disulfide between residues 38 and 75) (designed binder)
chain: PKKKIQLHAEHALYDALMILNIVKTNSPPAEEKLEDYCFNFELILEEIARLFESGDQKDEAEKAKRMKEWMKRICTTASEDEQEEMANAIITILQSWIFS
modifications: disulfide bond between residues 38 and 75
B23 gave a Kd in experiment [9] of 1.3 nM.
